From publication PMC5415311

Target: adeno-associated virus (AAV)-DJ capsid protein
Assay: cryo-EM structure

adeno-associated virus (AAV)-DJ capsid protein
stoichiometry N: 60
